# In a protein production outcome set (Wang et al. 2014):
# Test: label from the status in PepcDB records
row,Sequence,protein production
1,MDMLFQWLLLTAAVAAGWAVGRYGNRSGRASRAIMDEDSVRDRLQFLFTNYSDQAVDNFVQSLAVNKDTVSLHLSIGSHFRNKGETDRAILIHQNLLARPELPARYSPQVTQELAMDYLNAGLLDRAEALFHQLMGDREYGRRSAIALIELYQQEREWEKAAQVAKTLTRSDADPATFKALAYITCELSDGALSRNDDRWTAQKLAKEALDYDRSCVRATLLLMKLQIRQGNFREAANQSLKIFDQNPEFGPEAIDRLMKLEREHGDVSRLYKKLRKLYEQYPSTSLLLALVESVERSSGRPAAIDLLRMELETRPSVRGLLRLVEMAGYEKGMTTDEGRLVSRIGHLILANRPVYRCVSCGFSGQQLHWLCPSCKQWETVRPIQGVEAE,failed
2,MDMRVSWFLLLLPFVLTSALAATSAASHASGPPAFMGQLTLLLLVAGATAFASFRLGLVPIIGFLFAGVLAGPSALGIIDDPALIGAASEIGVMLLLFTIGIEFSLDKLARIFRLIFVGGGLQVLLTVAAVTGVLLAFGVSLPNAVFTGFLLSLSSTAIVTKILESRGGVGSPTGQASLGILIFQDLAVVVMVLLVPMLAGQGGGAGGLVVALLKAGGIVAAVLLLARRVVPKLLEVVARTCSQEIFLLSTLSLCFATAYLTSLAGVSLALGAFLAGLLVSESRFGQQAFGEILPLQILFSAAFFLSVGLQLDLGFLWTHLPLVLGAVAVFAVLKALAAALSVRLLGFPLATAAATGWLLAQVGEFSFVLESSGRALGLSPAGLGETGTQTFIAATVLLMALTPVMATLGERLGALGRARPAPTAAPAEAPTRAEPNPEAPLAHLSGHVLVAGFGDHARRLVKGLAAQQVPFGVLTLSPDGAAQVTAHGYPVLIGDYARAGLLGDAGLASARALVVLDDVPEMTARVIGVARTLNPELTIVAHTDEPGEIATLRGVGATHVLTSTDAVARGVLGL,failed
3,MDMTYNMRNAMASSRNMEEPQYDMSTIDLTQNSMNTNYLMNGSVLTNAYNNDYIVNNRDKYTGDMISQLKIDQGIPTYSHTLPMNGTTLADTNDSLNIQGMMRTNMDTTGFDGYSHIMNYNNTQNTIQTNPITYRMEDYNNLNNDVMYINPTTGEKFSAEYVNNIPTNDSDNMLYSNNFKNNSINMNTLLNSHYNNLPYPMPIYESMNNPQMYMQHMNQKQTVNIPLQHGEKKSAARNISTVNKRRIKTKKFFPCC,failed
4,MDMYHTKILKAIESEDYISVRRRVLRQLVESLIYEGIITPARIEKEEQILFLIQGLDEDNKSVTYECYGRERITFGRISIDSLIVRVQDGKQEIQSVAQFLEEVFRVVNVEQTKLDSFIHELEQTIFKDTIAQYERCNKLKYTQKSYDELENHLIDGHPYHPSYKARIGFQYRDNFRYGYEFMRPIKLIWIAAHKKNATVGYENEVIYDKILKSEVGERKLEAYKERIHSMGCDPKQYLFIPVHPWQWENFIISNYAEDIQDKGIIYLGESADDYCAQQSMRTLRNVTNPKRPYVKVSLNILNTSTLRTLKPYSVASAPAISNWLSNVVSQDSYLRDESRVILLKEFSSVMYDTNKKATYGSLGCIWRESVHHYLGEQEDAVPFNGLYAKEKDGTPIIDAWLNKYGIENWLRLLIQKAIIPVIHLVVEHGIALESHGQNMILVHKEGLPVRIALKDFHEGLEFYRPFLKEMNKCPDFTKMHKTYANGKMNDFFEMDRIECLQEMVLDALFLFNVGELAFVLADKYEWKEESFWMIVVEEIENHFRKYPHLKDRFESIQLYTPTFYAEQLTKRRLYIDVESLVHEVPNPLYRARQLNIQKSVATGGNYANC,failed
5,MDNALTFVISTLCILALCYRFYGVFFVRKVLRADDSVVTPSHTFEDGKNYVPTKKWVNAGQHFAAIAAAGPLVGPVLAAQFGYLPGFLWLLVGCVVGGAVHDTVVLFASMKHNGKSLSNVAKAELGPVAGWCTGLAMLFIITITMAGLSMVVVHALERNPWGTFAVFMTIPIAIAVGLYERFTGNHKGATWVGIIAIMVAVLAGPYIQGTLLGDWLTLRVDSVALALPIYAFFASALPVWLLLTPRGYLSSFMKIGVFGALVVGVVIINPTIQFPALTDFIHGGGPVLAGPVWPFISITIACGAISGFHAFIGSGTTPKLVDKWSDIRPVAFGAMLAECMVAVLALVAATALHPADYFAINASPAAFASLGMEVVDLPHLSQEIGMDLAGRTGGAVTLAVGMTFIFTKLPWFATLSSYFFQFVIMFEAVFILTAVDSGTRVARYLIQDLGGDLYAPLKRLDWIPGSIGASVAACALWGYLLTSGDINSVWALFGVSNQLMASIGLIIGATIILRVAAKRIYMLTCLIPLAYLFVTVNYAGYWMIANVYLNTQARGYNPINAGISAIMMVLGLIILITAFGKWKTMLALPKSLRSGEVPAPSLP,failed
6,MDNDRDTVEFWSSLFQSFADSEPKDNPYPVVRSPIMTMSTPMAIDEPVEPWKVLEYGGKEVRPMAIDEPAEPWKALEYGGKDVRPMAIDVPAEPWKVGGKEAQPANAAAEAGYKNVNTDQEKSTQKATEKVIM,not failed
7,MDNITFPSQGSLSSSNQTFDSQSAARNSNAPPEYVNQGLLLWNQTRERWVGKDKPNNPVDHNQGAKLNWNTATYDSLLGSNKLFPQPIPLTEMVDFLVDIWEQEGLYD,failed
8,MDNLFYYMIIQNDRIQPIIVRQPQTVIIHSQPKLPITLDLPPQNIILKNEDPQPIIVRQSNPNIIIEKSQNDFYNHPNFHIGLHDKVNSMSDINNTNIKEQPIKDNMIEDMQNINNADTQFYYNNQNVINENNVLPTHYSYLNNGVFNKEHNYDPYNFTLYSNK,failed
9,MDPAGASVASAIGGEGEKFAVGNIYSVKVITGDEFRGIGTKPRPGHLKNTRMVNASFITGLSYLGKTEDPLDSDNFSVDLNGLRAKEALAIRQAEADAERMGVGVTAEAQSIFDALSKTLPVQWENSDILVMKEVRVRSPYLSDCVFGGTDAANNRVKKVLELERRRLQLFGT,failed
10,MDPAVFEEWMMIILVTVLIGFMGFIVWDLAKKSKAGKFGTLILFFVLGLGVLAFIIKSVVVGFLEGV,failed
11,MDPIESVEYNGFETSNGNVDHGWKKVVYPKRHRKQKQADQATANGGKTVASNGTVANGGDNVFRSLEEQAEDRRRRILAAKMTAIDSDDDGVVRSKHRSNGYGDDGYDFDGSDDEIATLKVEEVKKPKPKKEKKPKVSLPEAASKIDPLNLEAFLVEASESYASQPEIQLMRFADYFGRALSGVSSVQFPWVKMFKESPLSKLIEVPLAHIPEPVYKTSVDWINHRPIEALGAFVLWAFDCILTDLAAQQGGAKGGKKGGQQTTSKSQVAIFVALAMVLRRKPDALTNVLPTLRENPKYQGQDKLPVTVWMMAQASQGDIAVGLYSWAHNLLPVVGNKNCNPQSRDLILQLVEKILTNPKARTILVNGAVRKGERLIPPPSFEILLRLTFPASSARVKATERFEAIYPLLKEVALAGAPGSKAMKQVTQQIFTFALKLAGEGNPVLAKEATAIAIWSVTQNFDCCKHWDNLYKENLEASVAVLKKLVEEWKEHSVKLSSSPNDALTLNRTMKSFRLKNEEVITEGGANASLYKEADKSCKTISGRLSRGSGCLKGTAITLVFLAAAGAAAAAVLSSNPEVTNELKNLVDSLELHEYINKYTEVISTALKK,failed
12,MDPLNLSWYDDDLERQNWSRPFNGSDGKADRPHYNYYATLLTLLIAVIVFGNVLVCMAVSREKALQTTTNYLIVSLAVADLLVATLVMPWVVYLEVVGEWKFSRIHCDIFVTLDVMMCTASILNLCAISIDRYTAVAMPMLYNTRYSSKRRVTVMISIVWVLSFTISCPLLFGLNNADQNECIIANPAFVVYSSIVSFYVPFIVTLLVYIKIYIVLRRRRKRVNTKRSSRAFRAHLRAPLKGNCTHPEDMKLCTVIMKSNGSFPVNRRRVEAARRAQELEMEMLSSTSPPERTRYSPIPPSHHQLTLPDPSHHGLHSTPDSPAKPEKNGHAKDHPKIAKIFEIQTMPNGKTRTSLKTMSRRKLSQQKEKKATQMLAIVLGVFIICWLPFFITHILNIHCDCNIPPVLYSAFTWLGYVNSAVNPIIYTTFNIEFRKAFLKILHC,failed
13,MDPNKVEISRLEALPQDLLREIVAKIGVKSAEDYHNCILSCKELGASANDERVLKTLNLALLVKKPLSCRKHLLIMKKCLANNNPDAHYIKGIIWYFNLDHCDVDLHHIGIAANGGQKEAIYMYAMLLLCRGRTEEGKTYMSQLEWAKTPPWLKRVGNKSKLH,failed
14,MDPRKVNELRAFVKMCKQDPSVLHTEEMRFLREWVESMGGKVPPATQKAKSEENTKEEKPDSKKVEEDLKADEPSSEESDLEIDKEGVIEPDTDAPQEMGDENAEITEEMMDQANDKKVAAIEALNDGELQKAIDLFTDAIKLNPRLAILYAKRASVFVKLQKPNAAIRDCDRAIEINPDSAQPYKWRGKAHRLLGHWEEAAHDLALACKLDYDEDASAMLKEVQPRAQKIAEHRRKYERKREEREIKERIERVKKAREEHERAQREEEARRQSGAQYGSFPGGFPGGMPGNFPGGMPGMGGGMPGMAGMPGLNEILSDPEVLAAMQDPEVMVAFQDVAQNPANMSKYQSNPKVMNLISKLSAKFGGQA,failed
15,MDPVLLLSALLLLAFGLIGVGTAEPGLLQDHLLRVGAALLALVLGHLLPPRLLLRYALHALVGVLLLLVLVLLVGDGPGGVRRWFYLGPVALQPSELAKLALILYLSSFVGRRGEDYPILGPVLAVGSLVGLVLVEPDFATAAFLAGLAVLLFVLAGIPWPRLLGMGLAVALVVLPFSGLYLAQFRYVSERFANFVDYLQGESEPGGGAYQVVQAKKALLLGGPFGQGPGATLPHLPEAHNDMVFASVVFATGWLGGAVVFLLYTLILLRSLAVGLALKGGERLLALGLGLYLALQAALNIGVTLGVLPVTGVPLPLVSYGGSSLLVSGFAVGLLSRLAREAAERPRRKGVAR,failed
16,MDQNVPISKKLWNIVRFLLYMIRKGVSKNKLIADFNATLKRGKNLMFHQRRRVHAGSTASAALNATSATASSRQEYEFSCSNTPNYSFPFSNMAFMRKKSHNNLFTCGQTPQTLDDDVAAARAVLELLNGVGEKGNVTPADLTVALSPYFPGFGQTPLVRPLRVTDSPFPLTPENGDVANGHVDKAADDFIKKFYKNLNQQKKMIEFS,failed
17,MDQSTLRHRITDQFSYRGERADIWRAFDLLFDTDEFLNLGYSEWYQPHIAGSSQRRLVTEVGSRVASHLPTTDGVRLLDVGCGRGGPALHLAYQFGFNVTGVDLVPYNIQMATENARGKHLDSEFIIGDATQLPFTRDSFTACTAIDALVYLPERNRVFATVADTLEPEGVLVVSDLVMQSDVTETERRLVDSFADAWDMPSLGTVEGYKAALDETSFELKAVEDITKHSVGRFRKWTTLYLQLLTSPLRALIERLLGAYDLDPPAITEQVRKAHHALPFLRHVIFVAELETT,failed
18,MDRDELVRYLDAYLRIQDFPQDPSLNGLQVEGKRTVRKVGAAVDAGEAIFRKALEEEVDFLIVHHGLFWGKPFPIVGHHKRRLETLFQGGINLYAAHLPLDAHEEVGNNFVLARELGLVDLTPWDVGVKGRFPQPTPLLQVADRLGQLTGMQPLVHQGGLDHVETVILVSGSGTGLLPKVDADLFVTGEPKHSVFHETFERGLNVIYAGHYDTETFGVKALAAHLEARFGLPWVFLDHPTGL,not failed
